Laboratory results reported in US20040116333A1 (ABGENOMICS COOPERATIEF U A, published 2004).

B1: mouse P-selectin glycoprotein ligand-1 (PSGL-1), first designated T cell apoptosis inducing protein (TAIP) (receptor, UniProt Q62170 42-397, looked up)
chain: QVVGDDDFEDPDYTYNTDPPELLKNVTNTVAAHPELPTTVVMLERDSTSAGTSERATEKIATTDPTAPGTGGTAVGMLSTDSATQWSLTSVETVQPASTEVETSQPAPMEAETSQPAPMEAETSQPAPMEAETSQPAPMEADTSQPAPMEAETSQPAPNEAETSKPAPTEAETSKPAPTEAETTQLPRIQAVKTLFTTSAATEVPSTEPTTMETASTESNESTIFLGPSVTHLPDSGLKKGLIVTPGNSPAPTLPGSSDLIPVKQCLLIILILASLATIFLVCTVVLAVRLSRKTHMYPVRNYSPTEMICISSLLPEGGDGAPVTANGGLPKVQDLKTEPSGDRDGDDLTLHSFLP
notes: whole, on cells; Endogenous protein on mouse T cells; For immunoprecipitation and western blot it was solubilised from RL1 T cell lysates; also called TAIP antigen; CD162

Experiments:
[1] = biological target: human P-selectin glycoprotein ligand-1 (PSGL-1) (human) (UniProt Q14242); assay: cell-based or functional assay
[2] = biological target: T1, recombinant mouse P-selectin/Fc chimera (R&D Systems) (mouse; human, UniProt Q01102 42-709); assay: flow cytometry on Con A-activated mouse T cells, FITC-anti human IgG Fc detection
T1 construct: range 42-709; The CD33 signal peptide (Met1-Ala16) of the construct is left out; also called mouse P-Selectin fused to the Fc region of human IgG1; P-selectin-Fc fusion protein; not shown: Human IgG1 constant region, Pro100-Lys330
T1 sequence: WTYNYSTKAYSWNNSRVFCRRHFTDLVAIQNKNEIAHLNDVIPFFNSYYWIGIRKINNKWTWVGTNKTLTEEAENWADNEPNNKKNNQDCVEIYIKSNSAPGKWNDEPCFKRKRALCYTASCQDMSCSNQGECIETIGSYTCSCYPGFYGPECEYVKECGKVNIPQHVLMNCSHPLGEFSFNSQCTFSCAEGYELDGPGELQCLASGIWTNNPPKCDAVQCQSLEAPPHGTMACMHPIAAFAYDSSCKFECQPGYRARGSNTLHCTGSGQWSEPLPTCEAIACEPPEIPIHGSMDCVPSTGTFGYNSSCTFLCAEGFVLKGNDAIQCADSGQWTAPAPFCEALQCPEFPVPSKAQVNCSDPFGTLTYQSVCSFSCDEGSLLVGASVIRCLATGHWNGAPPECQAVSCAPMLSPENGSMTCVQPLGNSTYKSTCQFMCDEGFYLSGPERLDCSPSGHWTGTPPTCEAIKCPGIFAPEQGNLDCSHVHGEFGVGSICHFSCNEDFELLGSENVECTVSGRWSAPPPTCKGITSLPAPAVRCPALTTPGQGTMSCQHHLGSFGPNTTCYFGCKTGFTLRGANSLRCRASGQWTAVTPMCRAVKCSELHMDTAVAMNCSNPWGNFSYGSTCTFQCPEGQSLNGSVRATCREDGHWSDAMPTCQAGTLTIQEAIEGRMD
Method: To determine ability of selectins (P-Selectin, E-Selectin, and L-Selectin) to bind to activated T cells, freshly prepared splenocytes from C57BL/6 mice were activated and harvested at days 2, 4, and 6. Non-activated T cells (i.e., freshly prepared splenocytes at day 0) were also analyzed. The day 2 sample constituted 3×10⁶ cells/ml of splenocytes that were activated with 2 ug/ml of Concanavalin A (Con A) in DMEM+10% FBS for 2 days. Live cells were isolated by Ficoll gradient separation. The day 4 sample was obtained from cells that were activated with Con A for 3 days and maintained in medium containing 5 ng/ml of IL-2 for an additional day. The day 6 sample was derived from cells that were activated with Con A for 3 days and maintained in 5 ng/ml of IL-2 for 3 days.
To assay the samples by FACS analysis, 2×10⁵ cells per well from days 0, 2, 4 and 6 were incubated at 4° C. for 30 minutes with 40 ul/well of mouse P-Selectin, E-Selectin, or L-Selectin fused to the Fc region of human IgG1 (R&D Systems, Minneapolis, Minn.) at concentrations ranging from 20 ug/ml with two-fold serial dilution to 0.156 ug/ml. Following the incubation, cells were washed with 1× FACScan buffer (1×PBS without calcium and magnesium ions from Biochrom AG, Berlin and 2% FBS). […]

Chain of human P-selectin glycoprotein ligand-1 (PSGL-1) (human) (Q14242 42-412): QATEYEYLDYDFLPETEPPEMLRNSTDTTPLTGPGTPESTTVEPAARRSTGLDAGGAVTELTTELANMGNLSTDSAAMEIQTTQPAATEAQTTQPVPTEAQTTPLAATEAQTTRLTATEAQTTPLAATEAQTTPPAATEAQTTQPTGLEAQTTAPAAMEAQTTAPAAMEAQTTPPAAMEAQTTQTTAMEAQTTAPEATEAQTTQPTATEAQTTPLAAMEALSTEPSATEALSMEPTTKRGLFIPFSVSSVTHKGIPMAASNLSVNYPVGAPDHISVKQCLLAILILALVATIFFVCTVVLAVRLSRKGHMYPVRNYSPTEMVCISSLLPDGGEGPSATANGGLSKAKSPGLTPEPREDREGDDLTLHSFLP

| Molecule | percentage of apoptotic cells (Annexin V / PI, FACS) in PHA-activated human PBMC, day 3, with rabbit anti-mouse Ig cross-linker [1] [%] | percentage of apoptotic cells (Annexin V / PI, FACS) in PHA-activated human PBMC, day 8, with rabbit anti-mouse Ig cross-linker [1] [%] | binding result [2] |
| --- | --- | --- | --- |
| anti-PSGL-1 antibody clone KPL-1 (BD PharMingen) | 8.5 | 24 |  |
| B1 |  |  | binds |
